Substitutions are numbered along the chain they refer to. Numbers in names are those of the source.
B1: MBP-Mgm101 (wild-type fusion of maltose-binding protein with Mgm101 lacking the mitochondrial targeting signal) (natural protein, yeast, UniProt P32787 23-269, looked up)
chain: VVSTGTSNTATAGAVRKSFNSTETKPVFATKSEAGNGSHMKEYSSGINSKLGGTPLETRSTADDSLNNSYKQVKGDIDWYTSWYGLGMKPFEAKVQKDLIEPLDPKDIEIKPDGLIYLPEIKYRRILNKAFGAGGWGLVPRSQTIVTSKLVTREYGLICHGQLISVARGEQDYFNEAGIPTATEGCKSNALMRCCKDLGVGSELWDPVFIKKFKVDHCTEKFVEHVTTKRKKKIWLRKDRQVEYPYK
B2: MBP-Mgm101^W257A (natural protein, yeast, UniProt P32787 23-269, looked up)
chain: B1 chain with W235A
B3: MBP-Mgm101^(K251-K253)A (natural protein, yeast, UniProt P32787 23-269, looked up)
chain: B1 chain with K229A, R230A, K231A
B4: MBP-Mgm101^Y268A (natural protein, yeast, UniProt P32787 23-269, looked up)
chain: B1 chain with Y246A
B5: Mgm101^Y139A (tag-free) (natural protein, yeast, UniProt P32787 23-269, looked up)
chain: B1 chain with Y117A
B6: Mgm101^(K251-K253)A (tag-free) (natural protein, yeast, UniProt P32787 23-269, looked up)
chain: B1 chain with K229A, R230A, K231A
B7: MBP-Mgm101^K253A (natural protein, yeast, UniProt P32787 23-269, looked up)
chain: B1 chain with K231A
B8: Mgm101^K253A (tag-free) (natural protein, yeast, UniProt P32787 23-269, looked up)
chain: B1 chain with K231A

Molecular target: the molecule itself
Assay: SEC

Binding result, binds:
B1
B2
B3
B4
B5
B6
B7
B8
